CN113521276A

Biological target: 人IFNAR1 on cells (HEK Blue IFNα/β cells, Daudi cells, human whole blood) (human) (UniProt P17181)
Test: cell-based or functional assay

Sequence of 人IFNAR1 on cells (HEK Blue IFNα/β cells, Daudi cells, human whole blood) (human) (P17181 28-557): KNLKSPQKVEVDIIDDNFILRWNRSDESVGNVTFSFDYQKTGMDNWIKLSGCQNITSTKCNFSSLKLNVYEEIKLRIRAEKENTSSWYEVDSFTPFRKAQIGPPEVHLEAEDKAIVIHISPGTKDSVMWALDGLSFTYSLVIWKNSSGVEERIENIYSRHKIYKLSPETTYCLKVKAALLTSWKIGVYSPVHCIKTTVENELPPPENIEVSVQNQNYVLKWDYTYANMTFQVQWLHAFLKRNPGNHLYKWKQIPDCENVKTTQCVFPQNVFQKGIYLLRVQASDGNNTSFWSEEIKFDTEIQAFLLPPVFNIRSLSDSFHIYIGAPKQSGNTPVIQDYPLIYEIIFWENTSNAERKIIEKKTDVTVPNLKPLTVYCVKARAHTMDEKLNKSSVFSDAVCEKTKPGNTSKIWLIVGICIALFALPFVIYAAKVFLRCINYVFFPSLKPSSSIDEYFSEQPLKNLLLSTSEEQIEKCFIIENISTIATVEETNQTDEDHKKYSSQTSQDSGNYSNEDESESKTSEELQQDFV

Substance: Anifrolumab (antibody)
- 抑制干扰素诱导的Daudi细胞增殖活性 (0.8ng/ml IFNα.2b, CellTiter-Glo): 31.7 ng/mL
- 抑制干扰素诱导的HEK Blue IFNα/β细胞中STAT1/2磷酸化活性 (0.2ng/ml IFNα.2b, QUANTI-Blue OD630nm): 4.43 ng/mL
- 抑制干扰素诱导的全血释放CXCL10/IP10活性 (8ng/ml IFNα.2b, 40ng/ml TNF-α, sandwich ELISA): 562 ng/mL
